The supplement of paper PMC12636428

Test system: Saccharomyces cerevisiae
Assay: transcriptional activation domain activity (GFP:mCherry ratio, weighted mean of sorted bins, harmonized to initial dataset scale) (arbitrary fluorescence ratio units); higher = stronger transcriptional activation
Conditions: beta-estradiol 1 µM; induction time 4 h
Outline: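 Sorting into 8 bins by GFP:mCherry ratio followed a 4-hour hold at 30 °C after cultures were diluted 1:5 into SC with 1 uM beta-estradiol. The yeast diploids carried a GFP reporter and had barcoded protein tiles, fused to an estradiol-inducible synthetic transcription factor, integrated at URA3. Barcodes were then sequenced, and tiles with under 50 reads were removed. Activation activity is the read-weighted mean of bin median fluorescence, averaged across barcodes and linearly mapped onto the initial dataset scale.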

DQKPIIDQKPLALLLEKLTVSEPPRGGTLGPAWMRERLEASGQMALWKRIVEK
transcriptional activation domain activity: 34100

VRTARQQLMEAAMKTFQLAVGPSEYLPNLALGYQYMACLRWLTHFNIFFHIPL
transcriptional activation domain activity: 71400

MTNFSVALNVHTQIAYHNAEALRLKCMYNASSLLAKLPPHVLALIFLNHANWF
transcriptional activation domain activity: 36200

VDRSHLELIFGLPIWRLSGILVQTVWYVFQTGFSTLLSLCLFLVSAKRWIVWR
transcriptional activation domain activity: 52400

EDGEQKKQVLACSFCRERKIACGRPSAHSRDRTCNQCARRCMKCEHPTESRRG
transcriptional activation domain activity: 13800

FTKTIMHITLILNILMNMCVAPTLLPLQVYYWLTKYYCACHGCLPHFTVIALF
transcriptional activation domain activity: 60900

LQAAAALESNTADGEDTNMETEEDKSGADGRSVYVGNVGYRFAVLLASNQVDY
transcriptional activation domain activity: 36600

ATWWHVFGTRVFKPVPTYVGEFQTWLQAFIHLSWDWRLSTHMWFRYNFHMWTI
transcriptional activation domain activity: 68900

EYMGKETGSHHLGREGEEKTYAVRRDYESRNRVALTPERNAVEIVRVRTQAAP
transcriptional activation domain activity: 19700

FGCLGFYPYLYCTGGMVLSHFAPHQNPELYPSDLSIISSLLISILFFCGWTLT
transcriptional activation domain activity: 67900

ANPLSDSASFLSEENEDDAFGALNYNSLDATTMSAFDNNVDPFNILKSSPAQD
transcriptional activation domain activity: 66600

ILVMWTVISCPVFSFPDRGHGSMLFFLFKLCLVMLLTYLVTMLWFLCVFSIVV
transcriptional activation domain activity: 52100

FLDRGRVGFFFFFLLVSFYSSSWKLLFLLYTHFFVFSGLLALYYFLFWSVLFI
transcriptional activation domain activity: 68800

MSTNERKKQRFVKSIHKEKKNTACCSSTNVIGTSKLSSPVIAVVVVVVVVCWG
transcriptional activation domain activity: 45100

AAQRSVMLGHNLVTLEDILMTQRKWRAVLHETFYVRWIAVLRRWLCRLLDWPV
transcriptional activation domain activity: 42900

RRLAGLLRHLQHRTREMGGHIVLIADPTQVCFVLLRPIIKKPALPAELVRKFW
transcriptional activation domain activity: 44800

IYETVNTITELSCLLPGGPWFPHARELWWYASEPAGVRYVAVLLSPTLRSLRL
transcriptional activation domain activity: 69700

MLLFSKLYYEAVGVGCLSYFDFQSLQVWVLDICASWYFVLAFNSYFVVSLFFG
transcriptional activation domain activity: 36200

FVEDPEMRRSIVRKFDWRVLTWMAGLSSYLRLWVLYRSSLTRLLMCLVLCINA
transcriptional activation domain activity: 69800

MSEPPRKRAKLACVTCNARRVKCDVTDRHPCSNCAAGNVECETRESRRGKHIR
transcriptional activation domain activity: 24000

LLNNELFQGPSLSDEVTDWFGASEDIGLEFVEPWTELIEQRYMQCGDGDNNNF
transcriptional activation domain activity: 151000

SIYCRLIQKSLFLMMVPIVQMPPLLLLLTCYFLRIFLSFFTRMYFVCFVLIFL
transcriptional activation domain activity: 62400

EGADVVVEGNERRKKGESVWEKNLRKGLYGVALDYVLEQASSPIIVLTVLTAL
transcriptional activation domain activity: 60900

TIALMGQDSIYLQVLAGDPNEAQSKNARRVYRLLKRGKHWVLVTLLLSNVIVN
transcriptional activation domain activity: 27400

PAPKKAPAKPRGRKPKPTADSDNQEVEAEAKPKSARGKKRTVAEKAAEEGAQP
transcriptional activation domain activity: < 6570

EVAEEAAAAAAPEKKTRRGASKKAAAEKAAAAEEEGEKAAQKAEKAAEKAAEK
transcriptional activation domain activity: 33200

PPGRVAPDAESVGYVLHSRLLTLLFPLFFFSLPLYNSSLLAGWAGWGLMMITF
transcriptional activation domain activity: 62900

GGAGKGKGAAAAAAKAAGAARDVEDIVAREPEPHHKGAGGAGKGKGAAAAAAK
transcriptional activation domain activity: 41900

SASKPAAVTDADEAARPVKKPARPSPGDEDKPEKKEESSRKIETQQPKKAAAQ
transcriptional activation domain activity: 25500

SKWTTVDADDDLMRTFIRAYFLYEYDWFTFFHKDYFLDDMLAGSSTFCSPLLV
transcriptional activation domain activity: 42000

FTRVDICFRNCYAGGTVVLVYSALAFFLLLMIAMYGNGYHGPFAWMTFTLSTV
transcriptional activation domain activity: 53000

SKDDRSISSEDKASSDKLKKSSDRADRKRKDDDDSKRSKADRKSKRDEERSSD
transcriptional activation domain activity: 29600

TQQLEFWLPWQWIQANVFFPCVSYIYFRDWREMMEILLSYRSIEMDGLAFCLV
transcriptional activation domain activity: 69300

MALPLHFRYVSVTFIFLASFFWPVGFFSFFSLFFPATNSFLLFLSAFFRLVLF
transcriptional activation domain activity: 54100

LQILRVVLHLLIFDLHSSSSLTFPLPFPLALPFFIYPLNFLFLFWSFMCTFMY
transcriptional activation domain activity: 84800

YKNLSKYPIVKSAVALISLVQSLCRTMHSMPFHTEEYIRMIEVVLLKYYEKCY
transcriptional activation domain activity: 34300

GGKKKKAAAAVLETETEGEGEKENKSAEKGKAGSNGGGKKGKGKKGANGVANG
transcriptional activation domain activity: 23400

STAARTHGSKRSRDEEDGEGEERAKKRSRSEERVNTTRETRATRATRATSARP
transcriptional activation domain activity: 31100

LSSSPSAQIATNTNVVFILGSDDKRVKEVGDALKTKLGVKGGGKGSKWSGKFG
transcriptional activation domain activity: 33200

MTEQPPAIRIADKDGDGPAKRRRRPALSCAECRNRKVRCDRREPCGSCTRLRS
transcriptional activation domain activity: 42400

SIMHALRQFCTEMRATQFQDCRLRTVQLLLRLLPSANLSLFVYLLAFLSQIVQ
transcriptional activation domain activity: 36200

ESASAAEEPAAKSKRGKKSQAEPEEEELSAVDEEHEPAPKSKRSKKSKAAVET
transcriptional activation domain activity: 13800

ARQGVGMMQSNVVFFFFFSFSFLFLFFFFSFSFLFLFFFPFSIIPTCSSLAVF
transcriptional activation domain activity: 44800

RSTMKIVEEEDQRRRAIRKTCCALCGREEGVSLRCKRCKTVLYCSPSVRGCQL
transcriptional activation domain activity: 33200

MADALAENTAKLQLDEETGEMVSKGELKKRMAKRAKKAAAAKAKAEVPATTSA
transcriptional activation domain activity: 20400

TCRLSSPHLWWLTFGILCVLYLMVLEIFLLGLLVFFVGPLFYLFWNVVLLCLG
transcriptional activation domain activity: 79500

SLRLLLTVLAGYPIAIVYRLIFLNKTSTIIGASARNWFCLVAGLSLSYYFNSF
transcriptional activation domain activity: 70800

MYMSTIRSGHLQPVPSSSKLILFIFLFLFSLISLFFLVGSFPPFFLSYLWILC
transcriptional activation domain activity: 31200

PPPPPPPGAMGGLPPPPPPPPPPPGGPGGGPPPPPPPPPGGPGGPPPPPPPPG
transcriptional activation domain activity: 35100

DLDNDIDFETAYQMLSSNFDDQMSAHIHENTFSATSPPLLTHELGIIPNVATV
transcriptional activation domain activity: 95500

RKRGWSDEDGEGEGAEGGEAQNGKGKGKGRGRRARGKGKGKGKESAEAEKDED
transcriptional activation domain activity: 27200

WTCVRRPGGLGGFFFGTWTGWQIWVGLLVFWVGGCTFGLLLMNRFLLLTGVYK
transcriptional activation domain activity: 42000

WYWLATTMYFLYGESVIYYFKHVVLVDKVLLPLATHHRFISFMLYIIGFVFFV
transcriptional activation domain activity: 60400

SQVIKILTLLFFFLNLLFFVLICAATVARYCMFPQLWPIMLNHPSQSLFIGAF
transcriptional activation domain activity: 60600

MFGRPYCFGFVVYLFVGCFAVLSVVCSFFFFPLLPLLVVVILLKVVFSFVRAD
transcriptional activation domain activity: 29100

MLTILAQNQWFYIIVYIILSYLVIFIIGLFPSVLFFRLRHLHYSFSFYLEYLA
transcriptional activation domain activity: 32700

SNAAWGVMITFFQIIGLFDKYPIYWDSRLGDVVKAVSITILNTDYINLQCAYG
transcriptional activation domain activity: 73900

NILVRELQWCILCIRYTALGSLDHIRRLMTEIPAHHGLVRFLQRWVENWLEEQ
transcriptional activation domain activity: 37400

VIDGSYTTSLKMILFLLAISGQNLLFFFILISLTFLLFLFSTCLCMILLDALI
transcriptional activation domain activity: 22100

SPAPSFRGKSKAEEERERAVLDITDRVSKLLRKTQLQVRVIVECIHCKSPKHL
transcriptional activation domain activity: 33300

ILLIVRFIWRSPYLISTGCGSLINDFSYVNIFLYSKIFCERFFIFLSLVIFIK
transcriptional activation domain activity: 66800
